Experimental data taken from IntAct's records for PubMed 9853758.

B1: Phosphate system positive regulatory protein PHO4 (Saccharomyces cerevisiae), P07270 (parent)
chain: MGRTTSEGIHGFVDDLEPKSSILDKVGDFITVNTKRHDGREDFNEQNDELNSQENHNSSENGNENENEQDSLALDDLDRAFELVEGMDMDWMMPSHAHHSPATTATIKPRLLYSPLIHTQSAVPVTISPNLVATATSTTSANKVTKNKSNSSPYLNKRRGKPGPDSATSLFELPDSVIPTPKPKPKPKQYPKVILPSNSTRRVSPVTAKTSSSAEGVVVASESPVIAPHGSSHSRSLSKRRSSGALVDDDKRESHKHAEQARRNRLAVALHELASLIPAEWKQQNVSAAPSKATTVEAACRYIRHLQQNVST
partner: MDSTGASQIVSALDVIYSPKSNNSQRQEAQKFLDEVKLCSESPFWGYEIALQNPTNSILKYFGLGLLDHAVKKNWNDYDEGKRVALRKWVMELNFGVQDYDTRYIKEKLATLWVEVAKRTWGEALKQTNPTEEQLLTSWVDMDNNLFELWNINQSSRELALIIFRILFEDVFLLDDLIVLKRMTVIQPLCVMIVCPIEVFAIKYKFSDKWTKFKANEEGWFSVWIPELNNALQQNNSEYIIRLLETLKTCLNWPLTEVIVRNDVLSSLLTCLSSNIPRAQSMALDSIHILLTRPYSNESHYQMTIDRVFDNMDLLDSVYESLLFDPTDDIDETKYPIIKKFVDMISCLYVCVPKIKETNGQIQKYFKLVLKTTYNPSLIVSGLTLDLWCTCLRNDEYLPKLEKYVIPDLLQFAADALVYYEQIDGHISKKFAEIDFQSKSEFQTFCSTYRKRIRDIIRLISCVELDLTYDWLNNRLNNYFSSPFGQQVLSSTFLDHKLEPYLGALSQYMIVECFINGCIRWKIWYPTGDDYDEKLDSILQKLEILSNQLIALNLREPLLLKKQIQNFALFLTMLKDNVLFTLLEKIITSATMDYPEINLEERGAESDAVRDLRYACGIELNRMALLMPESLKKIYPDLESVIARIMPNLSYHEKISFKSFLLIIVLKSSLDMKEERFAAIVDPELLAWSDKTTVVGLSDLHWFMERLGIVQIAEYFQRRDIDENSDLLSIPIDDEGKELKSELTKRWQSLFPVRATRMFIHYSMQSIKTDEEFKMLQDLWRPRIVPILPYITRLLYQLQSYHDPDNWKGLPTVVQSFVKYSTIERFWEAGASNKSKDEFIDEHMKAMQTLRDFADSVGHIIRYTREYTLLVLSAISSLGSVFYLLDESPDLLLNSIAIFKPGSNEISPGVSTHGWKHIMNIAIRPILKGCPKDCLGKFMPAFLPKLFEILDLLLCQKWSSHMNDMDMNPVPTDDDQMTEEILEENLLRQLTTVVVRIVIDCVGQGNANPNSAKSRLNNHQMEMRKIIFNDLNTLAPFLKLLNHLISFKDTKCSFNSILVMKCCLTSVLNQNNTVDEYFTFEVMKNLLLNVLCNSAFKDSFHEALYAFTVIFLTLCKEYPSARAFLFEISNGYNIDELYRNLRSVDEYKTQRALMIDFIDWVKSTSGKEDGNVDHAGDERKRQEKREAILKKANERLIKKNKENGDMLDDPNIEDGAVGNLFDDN

Variants of: B1
Conditions: with msn5_yeast MSN5, P52918

| Variant | effect of a mutation on the interaction |
| --- | --- |
| S100A;S114A;S128A;S152A;S223A | disrupting interaction |
